Values of other authors in paper PMC4319847 (PLoS ONE, 2015).

System: Yeast importin-α
Settings: in the crystal (1BK6) and in solution by DLS; ref [13]
Description: The open homodimerization probably attributes to H119 at the top of the loop; this loop corresponds to the K ...

B1: Yeast importin-α: Yeast importin-α (1BK6), first crystal structure of an importin-α shown to dimerize (protein, UniProt Q02821 1-542, looked up)
Importin subunit alpha: MDNGTDSSTSKFVPEYRRTNFKNKGRFSADELRRRRDTQQVELRKAKRDEALAKRRNFIPPTDGADSDEEDESSVSADQQFYSQLQQELPQMTQQLNSDDMQEQLSATVKFRQILSREHRPPIDVVIQAGVVPRLVEFMRENQPEMLQLEAAWALTNIASGTSAQTKVVVDADAVPLFIQLLYTGSVEVKEQAIWALGNVAGDSTDYRDYVLQCNAMEPILGLFNSNKPSLIRTATWTLSNLCRGKKPQPDWSVVSQALPTLAKLIYSMDTETLVDACWAISYLSDGPQEAIQAVIDVRIPKRLVELLSHESTLVQTPALRAVGNIVTGNDLQTQVVINAGVLPALRLLLSSPKENIKKEACWTISNITAGNTEQIQAVIDANLIPPLVKLLEVAEYKTKKEACWAISNASSGGLQRPDIIRYLVSQGCIKPLCDLLEIADNRIIEVTLDALENILKMGEADKEARGLNINENADFIEKAGGMEKIFNCQQNENDKIYEKAYKIIETYFGEEEDAVDETMAPQNAGNTFGFGSNVNQQFNFN
dimerization: dimerize not only in the crystal but also in solution
